Test results from US20240124553A1.

Legend:
Assay in all cases: flow cytometry, transfected 293T cells
[1] = molecular target: CHIKV E2-E1 envelope glycoproteins (strain S27), E2 mutant A103S (chikungunya virus strain S27) (UniProt Q8JUX5)
[2] = molecular target: CHIKV E2-E1 envelope glycoproteins (strain S27), E2 mutant A41S (chikungunya virus strain S27) (UniProt Q8JUX5)
[3] = molecular target: CHIKV E2-E1 envelope glycoproteins (strain S27), E2 mutant A76S (chikungunya virus strain S27) (UniProt Q8JUX5)
[4] = molecular target: CHIKV E2-E1 envelope glycoproteins (strain S27), E2 mutant A78S (chikungunya virus strain S27) (UniProt Q8JUX5)
[5] = molecular target: CHIKV E2-E1 envelope glycoproteins (strain S27), E2 mutant A81S (chikungunya virus strain S27) (UniProt Q8JUX5)
[6] = molecular target: CHIKV E2-E1 envelope glycoproteins (strain S27), E2 mutant D60A (chikungunya virus strain S27) (UniProt Q8JUX5)
[7] = molecular target: CHIKV E2-E1 envelope glycoproteins (strain S27), E2 mutant E109A (chikungunya virus strain S27) (UniProt Q8JUX5)
[8] = molecular target: CHIKV E2-E1 envelope glycoproteins (strain S27), E2 mutant E35A (chikungunya virus strain S27) (UniProt Q8JUX5)
[9] = molecular target: CHIKV E2-E1 envelope glycoproteins (strain S27), E2 mutant E40A (chikungunya virus strain S27) (UniProt Q8JUX5)
[10] = molecular target: CHIKV E2-E1 envelope glycoproteins (strain S27), E2 mutant F129A (chikungunya virus strain S27) (UniProt Q8JUX5)
[11] = molecular target: CHIKV E2-E1 envelope glycoproteins (strain S27), E2 mutant G108A (chikungunya virus strain S27) (UniProt Q8JUX5)
[12] = molecular target: CHIKV E2-E1 envelope glycoproteins (strain S27), E2 mutant G55A (chikungunya virus strain S27) (UniProt Q8JUX5)
[13] = molecular target: CHIKV E2-E1 envelope glycoproteins (strain S27), E2 mutant H130A (chikungunya virus strain S27) (UniProt Q8JUX5)
[14] = molecular target: CHIKV E2-E1 envelope glycoproteins (strain S27), E2 mutant H131A (chikungunya virus strain S27) (UniProt Q8JUX5)
[15] = molecular target: CHIKV E2-E1 envelope glycoproteins (strain S27), E2 mutant H73A (chikungunya virus strain S27) (UniProt Q8JUX5)
[16] = molecular target: CHIKV E2-E1 envelope glycoproteins (strain S27), E2 mutant I101A (chikungunya virus strain S27) (UniProt Q8JUX5)
[17] = molecular target: CHIKV E2-E1 envelope glycoproteins (strain S27), E2 mutant I48A (chikungunya virus strain S27) (UniProt Q8JUX5)
[18] = molecular target: CHIKV E2-E1 envelope glycoproteins (strain S27), E2 mutant K66A (chikungunya virus strain S27) (UniProt Q8JUX5)
[19] = molecular target: CHIKV E2-E1 envelope glycoproteins (strain S27), E2 mutant M97A (chikungunya virus strain S27) (UniProt Q8JUX5)
[20] = molecular target: CHIKV E2-E1 envelope glycoproteins (strain S27), E2 mutant N72A (chikungunya virus strain S27) (UniProt Q8JUX5)
[21] = molecular target: CHIKV E2-E1 envelope glycoproteins (strain S27), E2 mutant P128A (chikungunya virus strain S27) (UniProt Q8JUX5)
[22] = molecular target: CHIKV E2-E1 envelope glycoproteins (strain S27), E2 mutant P133A (chikungunya virus strain S27) (UniProt Q8JUX5)
[23] = molecular target: CHIKV E2-E1 envelope glycoproteins (strain S27), E2 mutant Q49A (chikungunya virus strain S27) (UniProt Q8JUX5)
[24] = molecular target: CHIKV E2-E1 envelope glycoproteins (strain S27), E2 mutant R86A (chikungunya virus strain S27) (UniProt Q8JUX5)
[25] = molecular target: CHIKV E2-E1 envelope glycoproteins (strain S27), E2 mutant S122A (chikungunya virus strain S27) (UniProt Q8JUX5)
[26] = molecular target: CHIKV E2-E1 envelope glycoproteins (strain S27), E2 mutant S88A (chikungunya virus strain S27) (UniProt Q8JUX5)
[27] = molecular target: CHIKV E2-E1 envelope glycoproteins (strain S27), E2 mutant T116A (chikungunya virus strain S27) (UniProt Q8JUX5)
[28] = molecular target: CHIKV E2-E1 envelope glycoproteins (strain S27), E2 mutant T42A (chikungunya virus strain S27) (UniProt Q8JUX5)
[29] = molecular target: CHIKV E2-E1 envelope glycoproteins (strain S27), E2 mutant T45A (chikungunya virus strain S27) (UniProt Q8JUX5)
[30] = molecular target: CHIKV E2-E1 envelope glycoproteins (strain S27), E2 mutant T87A (chikungunya virus strain S27) (UniProt Q8JUX5)
[31] = molecular target: CHIKV E2-E1 envelope glycoproteins (strain S27), E2 mutant T94A (chikungunya virus strain S27) (UniProt Q8JUX5)
[32] = molecular target: CHIKV E2-E1 envelope glycoproteins (strain S27), E2 mutant V32A (chikungunya virus strain S27) (UniProt Q8JUX5)
[33] = molecular target: CHIKV E2-E1 envelope glycoproteins (strain S27), E2 mutant Y69A (chikungunya virus strain S27) (UniProt Q8JUX5)

| Substance | Binding Reactivity (% WT) [1] [% WT] | Binding Reactivity (% WT) [2] [% WT] | Binding Reactivity (% WT) [3] [% WT] | Binding Reactivity (% WT) [4] [% WT] | Binding Reactivity (% WT) [5] [% WT] | Binding Reactivity (% WT) [6] [% WT] | Binding Reactivity (% WT) [7] [% WT] | Binding Reactivity (% WT) [8] [% WT] | Binding Reactivity (% WT) [9] [% WT] | Binding Reactivity (% WT) [10] [% WT] | Binding Reactivity (% WT) [11] [% WT] | Binding Reactivity (% WT) [12] [% WT] | Binding Reactivity (% WT) [13] [% WT] | Binding Reactivity (% WT) [14] [% WT] | Binding Reactivity (% WT) [15] [% WT] | Binding Reactivity (% WT) [16] [% WT] | Binding Reactivity (% WT) [17] [% WT] | Binding Reactivity (% WT) [18] [% WT] | Binding Reactivity (% WT) [19] [% WT] | Binding Reactivity (% WT) [20] [% WT] | also measured |
| --- | --- | --- | --- | --- | --- | --- | --- | --- | --- | --- | --- | --- | --- | --- | --- | --- | --- | --- | --- | --- | --- |
| CHIKV mAb C9 (antibody) | 69.7 | 70.7 | 107 | 84.1 | 86.6 | 74 | 109 | 22.2 | 107 | 6.7 | 71.9 | 75.9 | 106 | 24.4 | 89.6 | 26.6 | 10.7 | 85.7 | 76.3 | 112 | Binding Reactivity (% WT) [21]: 112 % WT; Binding Reactivity (% WT) [22]: 87.2 % WT; Binding Reactivity (% WT) [23]: 47 % WT; Binding Reactivity (% WT) [24]: 121 % WT; Binding Reactivity (% WT) [25]: 98.7 % WT; Binding Reactivity (% WT) [26]: 122 % WT; Binding Reactivity (% WT) [27]: 98.2 % WT; Binding Reactivity (% WT) [28]: 102 % WT; Binding Reactivity (% WT) [29]: 71.7 % WT; Binding Reactivity (% WT) [30]: 20.7 % WT; Binding Reactivity (% WT) [31]: 116 % WT; Binding Reactivity (% WT) [32]: 44 % WT; Binding Reactivity (% WT) [33]: 55.3 % WT |
| CHIKV mAb CHKV-88 (antibody) | 85 | 89.8 | 122 | 126 | 82.3 | 56.5 | 124 | 55.9 | 108 | 25.1 | 71.1 | 111 | 110 | 56.3 | 91.8 | 44.5 | 39.6 | 103 | 85.1 | 109 | Binding Reactivity (% WT) [21]: 102 % WT; Binding Reactivity (% WT) [22]: 92.3 % WT; Binding Reactivity (% WT) [23]: 87.1 % WT; Binding Reactivity (% WT) [24]: 110 % WT; Binding Reactivity (% WT) [25]: 84.3 % WT; Binding Reactivity (% WT) [26]: 111 % WT; Binding Reactivity (% WT) [27]: 110 % WT; Binding Reactivity (% WT) [28]: 112 % WT; Binding Reactivity (% WT) [29]: 85.7 % WT; Binding Reactivity (% WT) [30]: 52.9 % WT; Binding Reactivity (% WT) [31]: 109 % WT; Binding Reactivity (% WT) [32]: 84.8 % WT; Binding Reactivity (% WT) [33]: 95.4 % WT |
